Measured values: PMC6423188, “HYNIC and DOMA conjugated radiolabeled bombesin analogs as receptor-targeted probes for scintigraphic detection of breast tumor” (EJNMMI Research, 2019)
Where a SMILES comes first, the peptide text is derived from it.

Experiments:
in vitro [1] = type: in vitro ADME; details: rat, serum
Procedure: (§1) In vitro radiochemical stability of ^99mTc-BN1/^99mTc-BN2/^99mTc-BN3 and ^99mTc-BN4, ^99mTc-BNS were assessed by incubating HPLC purified radiopeptides in phosphate buffer saline (PBS at pH 7.4) and freshly collected rat serum for 1–24 h at […]. Then, 90 μL of radiolabeled peptide ^99mTc-BN1/^99mTc-BN2/^99mTc-BN3/^99mTc-BN4/^99mTc-BNS solution were incubated under agitation at 37 °C with either 1.0 mL saline or fresh rat serum, and the mixtures were incubated at 37 °C for 24 h. Samples were periodically withdrawn from the mixture at 0, 2, 4, 6, 8, 12, and 24 h incubation period and analyzed by ITLC. In the case of rat serum, the aliquot was added to 100 μL 50% trifluoroacetic acid (TFA). After centrifugation (3000 rpm), the supernatant was analyzed by ITLC using acetone as the developing solvent; 10 μL of this mixture was taken at each time point, added to a strip ITLC whereby the percentage of ^99mTc-BN1/^99mTc-BN2/^99mTc-BN3/^99mTc-BN4/^99mTc-BNS was determined using gamma counter.
(§2) In vitro stability of ^99mTc-labeled bombesin analogs incubated at 37 °C with either freshly collected rat serum or normal saline were monitored up to 24 h. […] The new radiolabeled peptide conjugates were stable up to 24 h post labeling period at room temperature, with no observable degradation or transchelation to serum proteins.

physchem [2] = type: physicochemical; details: buffer or solvent, pH 7.4
Procedure: as §1, §2

in vitro [3] = type: in vitro ADME; details: rat, serum; remark: listed apart in the source
Procedure, shortened: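 ^99mTc tracer incubated in fresh rat serum at 37 °C for 1 h, proteins precipitated with 10% trichloroacetic acid and centrifuged. Binding % = precipitate counts / (precipitate + supernatant counts) × 100; run in triplicate.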

physchem [4] = type: physicochemical; details: pH 7.4
Procedure, shortened: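 HPLC-purified 99mTc-labeled peptides were shaken 2 min at room temperature between 1 mL n-octanol and 1 mL PBS (0.025 M, pH 7.4), then centrifuged to separate the phases. Each phase was γ-counted. logD was derived as log10 of the background-corrected octanol/buffer cpm ratio.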

Q: Which remaining at 4 h (in vitro [1]) does the source give for `CCCC[C@H](NC(=O)[C@@H](Cc1ccc(O)cc1)NC(=O)[C@H](Cc1c[nH]cn1)NC(=O)[C@H]1CCCN1C(=O)[C@@H](NC(=O)[C@H](C)NC(=O)[C@H](Cc1c[nH]c2ccccc12)NC(=O)[C@H](CCC(N)=O)NC(=O)CCCNC(=O)CN1CCNCCNCCNCC1)C(C)C)C(N)=O` [99mTc-BN4, ^99mTc-DOMA-GABA-[Pro^11Tyr^13Nle^14]-BN(7-14)NH2, metal not drawn] (HELM PEPTIDE1{[O=C(CN1CCNCCNCCNCC1)[*:2]].[O=C(CCCN[*:1])[*:2]].Q.W.A.V.[dP].H.[dY].[Nle].[am]}$$$$V2.0) here?
A: 97.6 ± 0.05%

Q: What about the remaining at 6 h (in vitro [1]) of the same compound?
A: 97 ± 0.18%

Q: What about the remaining at 8 h (in vitro [1]) of the same compound?
A: 96.4 ± 0.2%

Q: What about the remaining at 12 h (in vitro [1]) of the same compound?
A: 95.2 ± 0.05%

Q: What about the remaining at 24 h (in vitro [1]) of the same compound?
A: 93.3 ± 0.02%

Q: What about the remaining at 2 h (physchem [2]) of the same compound?
A: 95.5 ± 0.03%

Q: And the remaining at 4 h (physchem [2])?
A: 95 ± 0.07%

Q: What about the remaining at 6 h (physchem [2]) of the same compound?
A: 93.5 ± 0.12%

Q: What about the remaining at 8 h (physchem [2]) of the same compound?
A: 92.5 ± 0.2%

Q: What about the remaining at 12 h (physchem [2]) of the same compound?
A: 90 ± 0.11%

Q: And the remaining at 24 h (physchem [2])?
A: 88 ± 0.14%

Q: And the fraction unbound at 1 h (in vitro [3])?
A: 0.809

Q: What about the logD (physchem [4]) of the same compound?
A: -2.7
